Source: patent US20200317768A1 (published 2020)
Changes are numbered by the printed parent chain. Numbers in names are those of the source.

T1: cynomolgus monkey FcγRIIa1 extracellular domain, His-tagged (cynomolgus monkey)
T1 construct: also called cyno FcγRIIa1; cynoFcgRIIa1
T1 chain: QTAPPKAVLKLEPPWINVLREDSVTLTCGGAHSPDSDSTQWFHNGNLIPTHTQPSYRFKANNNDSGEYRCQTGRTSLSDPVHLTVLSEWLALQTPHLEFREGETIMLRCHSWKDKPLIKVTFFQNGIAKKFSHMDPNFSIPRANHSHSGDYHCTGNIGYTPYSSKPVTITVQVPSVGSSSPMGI

T2: cynomolgus monkey FcγRIIa2 extracellular domain, His-tagged (cynomolgus monkey)
T2 construct: also called cyno FcγRIIa2; cynoFcgRIIa2
T2 chain: T1 chain with P95T, T121A, I127K, A128S, K130N, D135N, R142Q

T3: cynomolgus monkey FcγRIIa3 extracellular domain, His-tagged (cynomolgus monkey)
T3 construct: also called cyno FcγRIIa3; cynoFcgRIIa3
T3 chain: T1 chain with P95T, T121A, A128S, H133P, D135N

T4: cynomolgus monkey FcγRIIb extracellular domain, His-tagged (cynomolgus monkey)
T4 construct: also called cyno FcγRIIb; cynoFcγRIIb
T4 chain: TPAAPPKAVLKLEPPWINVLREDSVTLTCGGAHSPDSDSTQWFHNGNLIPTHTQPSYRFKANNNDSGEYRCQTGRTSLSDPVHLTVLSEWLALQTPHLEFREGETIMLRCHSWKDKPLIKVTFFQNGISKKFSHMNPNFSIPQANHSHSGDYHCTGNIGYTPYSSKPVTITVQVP

T5: cynomolgus monkey FcγRIIIaS extracellular domain, His-tagged (cynomolgus monkey, UniProt Q8SPW2 21-206 at identity 1.00))
T5 construct: also called cyno FcγRIIIaS; cynoFcγRIIIaS
T5 chain: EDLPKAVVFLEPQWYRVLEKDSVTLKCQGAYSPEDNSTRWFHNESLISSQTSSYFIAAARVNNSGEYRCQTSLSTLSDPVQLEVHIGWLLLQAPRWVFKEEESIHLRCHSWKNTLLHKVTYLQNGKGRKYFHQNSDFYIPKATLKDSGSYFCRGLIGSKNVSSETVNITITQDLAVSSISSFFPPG

T6: human FcγRIIaH extracellular domain, His-tagged (human, UniProt P12318 34-217)
T6 construct: also called human FcγRIIa (type H); FcgRIIaH
T6 sequence: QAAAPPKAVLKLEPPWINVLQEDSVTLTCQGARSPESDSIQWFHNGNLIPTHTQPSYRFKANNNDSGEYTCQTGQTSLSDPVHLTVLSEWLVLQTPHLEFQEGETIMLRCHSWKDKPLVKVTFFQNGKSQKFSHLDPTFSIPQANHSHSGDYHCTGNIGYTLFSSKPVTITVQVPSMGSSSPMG

T7: human FcγRIIaR extracellular domain, His-tagged (human, UniProt P12318 34-217)
T7 construct: also called human FcγRIIa (type R); FcgRIIaR
T7 chain: T6 sequence with H134R

T8: human FcγRIIb extracellular domain, His-tagged (human, UniProt P31994 43-217)
T8 construct: also called FcgRIIb (human)
T8 sequence: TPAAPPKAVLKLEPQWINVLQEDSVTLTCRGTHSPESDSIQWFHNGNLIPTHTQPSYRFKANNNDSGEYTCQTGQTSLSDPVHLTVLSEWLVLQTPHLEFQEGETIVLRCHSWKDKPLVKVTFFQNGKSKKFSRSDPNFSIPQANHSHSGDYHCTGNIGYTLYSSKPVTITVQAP

B1: MS_M103205H795-SG1/M103202L889-SK1 (antibody, human IgG1, kappa)
heavy: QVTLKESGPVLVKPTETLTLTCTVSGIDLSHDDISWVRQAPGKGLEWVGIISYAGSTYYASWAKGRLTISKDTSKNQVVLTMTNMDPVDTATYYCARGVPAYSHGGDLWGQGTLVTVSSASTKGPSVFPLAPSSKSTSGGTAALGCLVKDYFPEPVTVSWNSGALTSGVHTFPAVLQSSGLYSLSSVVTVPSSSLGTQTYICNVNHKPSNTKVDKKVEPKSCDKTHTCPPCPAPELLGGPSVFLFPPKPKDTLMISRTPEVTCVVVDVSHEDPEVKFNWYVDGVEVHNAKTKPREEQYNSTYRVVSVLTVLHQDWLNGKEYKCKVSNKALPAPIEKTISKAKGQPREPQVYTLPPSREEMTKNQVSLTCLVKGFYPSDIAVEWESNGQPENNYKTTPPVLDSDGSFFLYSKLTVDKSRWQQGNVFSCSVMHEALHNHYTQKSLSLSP
light: DIVMTQSPATLSLSPGERATLSCTSSQSVYHANWLSWFQQKPGQPPKLLIYWASTLAYGVPSRFSGSGSGTDFTLTISSLQPEDAATYYCAGGYGGGRYAFGQGTKVEIKRTVAAPSVFIFPPSDEQLKSGTASVVCLLNNFYPREAKVQWKVDNALQSGNSQESVTEQDSKDSTYSLSSTLTLSKADYEKHKVYACEVTHQGLSSPVTKSFNRGEC
notes: Parent antibody of the Fc variants; heavy chain constant region SG1, light chain M103202L889-SK1; also called MS1032LO06-SG1
B2: M103205H795-MY043/M103202L889-SK1 (antibody, human IgG1, kappa)
heavy: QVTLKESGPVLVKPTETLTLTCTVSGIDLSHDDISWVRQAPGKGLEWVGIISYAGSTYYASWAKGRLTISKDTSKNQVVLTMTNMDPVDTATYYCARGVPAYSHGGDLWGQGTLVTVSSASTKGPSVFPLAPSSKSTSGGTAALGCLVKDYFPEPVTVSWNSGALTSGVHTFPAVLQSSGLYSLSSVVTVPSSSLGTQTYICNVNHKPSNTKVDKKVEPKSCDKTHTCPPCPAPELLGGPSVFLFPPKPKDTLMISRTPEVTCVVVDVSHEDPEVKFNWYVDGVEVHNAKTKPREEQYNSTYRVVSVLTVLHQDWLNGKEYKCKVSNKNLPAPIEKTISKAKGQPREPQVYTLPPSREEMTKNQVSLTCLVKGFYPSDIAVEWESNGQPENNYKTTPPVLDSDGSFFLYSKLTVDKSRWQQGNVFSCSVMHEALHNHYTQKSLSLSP
light: B1 light
notes: Substitution put into M103205H795-SG1
B3: M103205H795-MY041/M103202L889-SK1 (antibody, human IgG1, kappa)
heavy: not shown
light: B1 light
notes: as for B2
B4: M103205H795-MY037/M103202L889-SK1 (antibody, human IgG1, kappa)
heavy: not shown
light: B1 light
notes: as for B2
B5: M103205H795-MY010/M103202L889-SK1 (antibody, human IgG1, kappa)
heavy: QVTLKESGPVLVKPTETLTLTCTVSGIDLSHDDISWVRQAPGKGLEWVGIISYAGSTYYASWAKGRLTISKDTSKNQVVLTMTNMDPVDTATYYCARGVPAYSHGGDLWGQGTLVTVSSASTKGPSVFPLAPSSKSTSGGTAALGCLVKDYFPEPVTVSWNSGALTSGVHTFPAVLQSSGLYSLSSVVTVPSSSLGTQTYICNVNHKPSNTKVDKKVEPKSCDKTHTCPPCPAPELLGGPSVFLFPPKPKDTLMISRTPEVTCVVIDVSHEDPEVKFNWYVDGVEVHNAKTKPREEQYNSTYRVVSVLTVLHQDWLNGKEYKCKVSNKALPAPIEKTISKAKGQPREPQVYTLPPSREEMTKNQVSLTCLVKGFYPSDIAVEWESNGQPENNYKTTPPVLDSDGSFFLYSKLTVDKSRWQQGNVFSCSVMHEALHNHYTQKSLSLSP
light: B1 light
notes: as for B2
B6: M103205H795-MY016/M103202L889-SK1 (antibody, human IgG1, kappa)
heavy: not shown
light: B1 light
notes: as for B2
B7: M103205H795-MY063/M103202L889-SK1 (antibody, human IgG1, kappa)
heavy: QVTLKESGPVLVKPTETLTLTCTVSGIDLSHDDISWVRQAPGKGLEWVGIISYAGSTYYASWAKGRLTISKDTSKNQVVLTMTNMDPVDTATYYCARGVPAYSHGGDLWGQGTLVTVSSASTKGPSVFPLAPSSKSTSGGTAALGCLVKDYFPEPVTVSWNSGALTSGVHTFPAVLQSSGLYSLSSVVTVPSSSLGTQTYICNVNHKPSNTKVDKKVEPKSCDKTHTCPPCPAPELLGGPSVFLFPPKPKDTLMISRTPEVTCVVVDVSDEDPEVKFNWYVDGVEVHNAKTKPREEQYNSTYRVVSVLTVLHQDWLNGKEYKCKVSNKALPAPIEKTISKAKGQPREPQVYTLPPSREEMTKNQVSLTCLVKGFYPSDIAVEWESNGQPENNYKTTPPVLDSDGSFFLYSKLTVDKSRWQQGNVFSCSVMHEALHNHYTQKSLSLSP
light: B1 light
notes: as for B2
B8: M103205H795-MY008/M103202L889-SK1 (antibody, human IgG1, kappa)
heavy: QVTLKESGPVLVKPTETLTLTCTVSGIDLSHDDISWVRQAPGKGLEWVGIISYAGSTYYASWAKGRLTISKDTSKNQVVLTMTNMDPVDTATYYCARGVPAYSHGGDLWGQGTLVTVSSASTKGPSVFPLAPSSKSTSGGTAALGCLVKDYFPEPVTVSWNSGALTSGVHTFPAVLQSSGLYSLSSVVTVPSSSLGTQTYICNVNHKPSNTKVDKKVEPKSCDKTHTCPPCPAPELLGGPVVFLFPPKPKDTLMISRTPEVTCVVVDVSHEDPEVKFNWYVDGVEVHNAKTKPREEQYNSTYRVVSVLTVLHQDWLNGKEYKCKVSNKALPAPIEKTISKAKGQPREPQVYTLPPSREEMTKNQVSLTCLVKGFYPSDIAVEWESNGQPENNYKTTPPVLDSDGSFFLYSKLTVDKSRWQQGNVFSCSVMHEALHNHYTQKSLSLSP
light: B1 light
notes: as for B2
B9: M103205H795-MY045/M103202L889-SK1 (antibody, human IgG1, kappa)
heavy: not shown
light: B1 light
notes: as for B2
B10: M103205H795-MY014/M103202L889-SK1 (antibody, human IgG1, kappa)
heavy: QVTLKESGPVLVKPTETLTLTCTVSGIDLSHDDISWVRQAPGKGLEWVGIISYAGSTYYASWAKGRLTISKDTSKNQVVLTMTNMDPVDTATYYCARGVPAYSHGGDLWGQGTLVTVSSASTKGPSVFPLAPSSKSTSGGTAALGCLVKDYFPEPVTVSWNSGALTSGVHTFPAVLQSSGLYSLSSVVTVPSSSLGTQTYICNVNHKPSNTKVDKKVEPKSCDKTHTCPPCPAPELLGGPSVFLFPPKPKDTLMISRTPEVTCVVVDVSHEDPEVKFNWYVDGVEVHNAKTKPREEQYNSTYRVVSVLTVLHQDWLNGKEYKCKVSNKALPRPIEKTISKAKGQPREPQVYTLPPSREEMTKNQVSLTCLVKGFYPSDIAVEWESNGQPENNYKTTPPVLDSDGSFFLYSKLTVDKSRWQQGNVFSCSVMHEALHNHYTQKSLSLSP
light: B1 light
notes: as for B2
B11: M103205H795-MY044/M103202L889-SK1 (antibody, human IgG1, kappa)
heavy: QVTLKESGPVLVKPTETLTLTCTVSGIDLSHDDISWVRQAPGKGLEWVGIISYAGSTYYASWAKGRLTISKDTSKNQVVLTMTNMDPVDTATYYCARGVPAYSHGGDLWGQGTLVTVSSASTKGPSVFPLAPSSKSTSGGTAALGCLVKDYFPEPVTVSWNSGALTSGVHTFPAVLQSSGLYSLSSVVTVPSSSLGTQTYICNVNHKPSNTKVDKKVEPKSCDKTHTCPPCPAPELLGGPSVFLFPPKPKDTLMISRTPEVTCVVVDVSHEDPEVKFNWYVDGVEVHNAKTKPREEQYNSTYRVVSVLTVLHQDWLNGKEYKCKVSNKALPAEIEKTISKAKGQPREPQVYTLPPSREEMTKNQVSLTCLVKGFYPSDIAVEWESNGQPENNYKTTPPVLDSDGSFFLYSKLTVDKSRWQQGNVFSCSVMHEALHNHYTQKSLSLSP
light: B1 light
notes: as for B2
B12: M103205H795-MY006/M103202L889-SK1 (antibody, human IgG1, kappa)
heavy: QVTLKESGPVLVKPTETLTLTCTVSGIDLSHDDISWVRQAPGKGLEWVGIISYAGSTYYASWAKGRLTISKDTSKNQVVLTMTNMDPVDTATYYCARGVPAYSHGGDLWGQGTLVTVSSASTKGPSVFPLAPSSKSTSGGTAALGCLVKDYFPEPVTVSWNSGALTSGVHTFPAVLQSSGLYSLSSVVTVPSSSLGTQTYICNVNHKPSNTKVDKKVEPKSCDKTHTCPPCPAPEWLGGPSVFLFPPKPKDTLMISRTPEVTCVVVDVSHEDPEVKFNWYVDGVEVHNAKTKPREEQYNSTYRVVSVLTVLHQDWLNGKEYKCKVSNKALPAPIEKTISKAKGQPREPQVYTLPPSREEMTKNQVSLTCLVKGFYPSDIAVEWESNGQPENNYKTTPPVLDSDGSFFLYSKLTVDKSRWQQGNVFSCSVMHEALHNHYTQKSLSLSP
light: B1 light
notes: as for B2
B13: M103205H795-MY038/M103202L889-SK1 (antibody, human IgG1, kappa)
heavy: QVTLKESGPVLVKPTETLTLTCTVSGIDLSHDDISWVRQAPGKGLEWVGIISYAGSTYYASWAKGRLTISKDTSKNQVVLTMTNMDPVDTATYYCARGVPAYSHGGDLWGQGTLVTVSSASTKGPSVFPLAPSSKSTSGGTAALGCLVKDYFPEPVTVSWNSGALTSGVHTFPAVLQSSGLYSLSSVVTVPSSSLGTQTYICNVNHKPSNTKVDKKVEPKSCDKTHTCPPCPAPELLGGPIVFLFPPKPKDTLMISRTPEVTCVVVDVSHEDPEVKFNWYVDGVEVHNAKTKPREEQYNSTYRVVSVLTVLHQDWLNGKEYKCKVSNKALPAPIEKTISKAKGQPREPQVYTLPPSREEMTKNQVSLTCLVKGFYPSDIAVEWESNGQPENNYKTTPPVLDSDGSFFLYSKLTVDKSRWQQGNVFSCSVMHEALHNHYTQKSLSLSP
light: B1 light
notes: as for B2
B14: M103205H795-MY013/M103202L889-SK1 (antibody, human IgG1, kappa)
heavy: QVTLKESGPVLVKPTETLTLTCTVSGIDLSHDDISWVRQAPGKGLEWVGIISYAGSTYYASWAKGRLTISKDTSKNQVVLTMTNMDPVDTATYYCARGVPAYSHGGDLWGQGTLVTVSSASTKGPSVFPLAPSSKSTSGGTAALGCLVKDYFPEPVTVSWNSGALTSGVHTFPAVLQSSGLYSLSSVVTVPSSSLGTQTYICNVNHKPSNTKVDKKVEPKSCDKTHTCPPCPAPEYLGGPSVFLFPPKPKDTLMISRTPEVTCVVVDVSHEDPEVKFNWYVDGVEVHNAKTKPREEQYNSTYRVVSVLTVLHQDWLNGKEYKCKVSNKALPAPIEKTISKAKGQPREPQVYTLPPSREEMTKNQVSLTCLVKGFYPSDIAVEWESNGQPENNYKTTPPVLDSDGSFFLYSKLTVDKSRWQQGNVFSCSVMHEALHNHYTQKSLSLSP
light: B1 light
notes: as for B2
B15: M103205H795-MY048/M103202L889-SK1 (P271D) (antibody, human IgG1, kappa)
heavy: not shown
light: B1 light
notes: Here the P271D molecule is meant; Put into M103205H795-SG1

Molecular target: T1, cynomolgus monkey FcγRIIa1 …
Assay: SPR, antibody captured, FcgR analyte
Description: (§1) The kinetic analysis of interactions between these antibodies and FcγR was carried out using BIACORE® T200 or BIACORE® 4000 (GE Healthcare). HBS-EP+ (GE Healthcare) was used as the running buffer, and the measurement temperature was set to 25° C. A chip produced by immobilizing Protein A. Protein A/G or mouse anti-human IgG kappa light chain (BD Biosciences) onto a Series S Sensor Chip CM4 or CM5 (GE Healthcare) by the amine-coupling method was used. […] After the measurement, the antibody captured on the chip was washed off by allowing reaction with 10 mM glycine-HCl, pH1.5 and 25 mM NaOH so that the chip was regenerated and used repeatedly. The sensorgrams obtained as measurement results were analyzed by the 1:1 Langmuir binding model using the BIACORE® Evaluation Software to calculate the binding rate constant ka (L/mol/s) and dissociation rate constant kd (l/s), and the dissociation constant KD (mol/L) was calculated from these values. […] Regarding such interactions, KD values were calculated using the following 1:1 binding model described in BIACORE® T100 Software Handbook BR1006-48 Edition AE.
(§2) The behavior of interacting molecules according to the 1:1 binding model on BIACORE® can be described by Equation 1: Req=C·R max/(KD+C)+RI, wherein, Req is a plot of steady-state binding levels to analyte concentration. C is concentration, RI is bulk refractive index contribution in the sample, and Rmax is analyte binding capacity of the surface. When this equation is rearranged, KD can be expressed as Equation 2: KD=C·Rmax/(Req−RI)−C. KD can be calculated by substituting the values of Rmax, RI, and C into Equation 1 or Equation 2. From the current measurement conditions, RI=0, C=2 μmol/L can be used.

Kd [nM]	Binder
3200	B1
5800	B2
4000	B3
3800	B4
3900	B5
2900	B6
1400	B7
4200	B8
5700	B9
2500	B10
3200	B11
2000	B12
3900	B13
4500	B14
6600	B15

Molecular target: T2, cynomolgus monkey FcγRIIa2 …
Assay: SPR, antibody captured, FcgR analyte
Description: as §1, §2

Kd [nM]	Binder
5100	B1
61000	B2
4100	B3
4500	B4
5000	B5
3400	B6
1500	B7
3700	B8
4000	B9
2500	B10
3500	B11
1500	B12
4500	B13
4700	B14
11000	B15

Molecular target: T3, cynomolgus monkey FcγRIIa3 …
Assay: SPR, antibody captured, FcgR analyte
Description: as §1, §2

Kd [nM]	Binder
17000	B1
18000	B2
7400	B3
9600	B4
18000	B5
3200	B6
2000	B7
24000	B8
6800	B9
12000	B10
52000	B11
3600	B12
11000	B13
52000	B14
4400	B15

Molecular target: T4, cynomolgus monkey FcγRIIb extracellular …
Assay: SPR, antibody captured, FcgR analyte
Description: as §1, §2

Kd [nM]	Binder
1800	B1
4400	B2
3500	B3
2400	B4
2000	B5
1700	B6
340	B7
1700	B8
2200	B9
1500	B10
1600	B11
920	B12
1900	B13
2000	B14
3500	B15

Molecular target: T5, cynomolgus monkey FcγRIIIaS …
Assay: SPR, antibody captured, FcgR analyte
Description: as §1, §2

Kd [nM]	Binder
360	B1
840	B2
260	B3
200	B4
220	B5
230	B6
67	B7
370	B8
140	B9
400	B10
470	B11
320	B12
310	B13
330	B14
370	B15

Molecular target: T6, human FcγRIIaH extracellular domain, …
Assay: SPR, antibody captured, FcgR analyte
Description: as §1, §2

Kd [nM]	Binder
690	B1
2900	B2
1800	B3
1100	B4
1200	B5
850	B6
270	B7
1600	B8
1600	B9
520	B10
1200	B11
1300	B12
1200	B13
2600	B14
1800	B15

Molecular target: T7, human FcγRIIaR extracellular domain, …
Assay: SPR, antibody captured, FcgR analyte
Description: as §1, §2

Kd [nM]	Binder
1100	B1
1500	B2
1200	B3
910	B4
1800	B5
940	B6
210	B7
1800	B8
1600	B9
960	B10
920	B11
1800	B12
1500	B13
5100	B14
1200	B15

Molecular target: T8, human FcγRIIb extracellular domain, …
Assay: SPR, antibody captured, FcgR analyte
Description: as §1, §2

Kd [nM]	Binder
4600	B1
3000	B2
3100	B3
2600	B4
9100	B5
2900	B6
660	B7
2600	B8
2900	B9
4800	B10
3300	B11
2300	B12
2600	B13
3700	B14
3000	B15

Molecular target: T9, human FcγRIIIaV extracellular domain, His-tagged (human, UniProt P08637 17-208)
T9 construct: also called FcgRIIIaV
Assay: SPR, antibody captured, FcgR analyte
Description: as §1, §2

T9 sequence (P08637 17-208 F176V): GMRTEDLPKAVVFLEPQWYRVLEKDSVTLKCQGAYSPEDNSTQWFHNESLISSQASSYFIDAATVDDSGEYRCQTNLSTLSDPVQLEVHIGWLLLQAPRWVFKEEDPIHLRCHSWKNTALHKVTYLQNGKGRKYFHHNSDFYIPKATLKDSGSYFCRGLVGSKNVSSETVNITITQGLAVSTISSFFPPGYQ

Kd [nM]	Binder
810	B1
120	B2
480	B3
370	B4
220	B5
370	B6
160	B7
630	B8
240	B9
690	B10
900	B11
730	B12
650	B13
410	B14
610	B15
